Data as given in patent US20200317768A1 (published 2020).

T1: cynomolgus monkey FcγRIIa3 extracellular domain, C-terminal His-tag (cynomolgus monkey)
T1 construct: also called cyno FcγRIIa3; cynoFcgRIIa3
T1 chain: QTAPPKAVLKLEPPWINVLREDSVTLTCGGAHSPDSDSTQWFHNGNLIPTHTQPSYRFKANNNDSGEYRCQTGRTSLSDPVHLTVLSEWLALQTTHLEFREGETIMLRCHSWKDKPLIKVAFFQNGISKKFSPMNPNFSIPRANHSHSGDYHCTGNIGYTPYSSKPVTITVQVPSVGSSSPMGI

T2: cynomolgus monkey FcγRIIb extracellular domain, C-terminal His-tag (cynomolgus monkey)
T2 construct: also called cyno FcγRIIb; cynoFcγRIIb
T2 chain: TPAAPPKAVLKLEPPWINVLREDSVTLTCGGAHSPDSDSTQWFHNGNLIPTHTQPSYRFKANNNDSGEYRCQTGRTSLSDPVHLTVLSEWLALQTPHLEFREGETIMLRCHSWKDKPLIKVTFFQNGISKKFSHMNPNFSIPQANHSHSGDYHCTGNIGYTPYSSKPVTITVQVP

T3: human FcγRIIb extracellular domain, C-terminal His-tag (human, UniProt P31994 43-217)
T3 construct: also called human FcgRIIb; FcgRIIb
T3 sequence: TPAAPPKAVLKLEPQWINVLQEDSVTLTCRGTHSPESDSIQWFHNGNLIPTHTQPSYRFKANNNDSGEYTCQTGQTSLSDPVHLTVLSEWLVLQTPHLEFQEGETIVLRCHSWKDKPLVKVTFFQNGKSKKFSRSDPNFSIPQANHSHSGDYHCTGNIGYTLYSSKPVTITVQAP

T4: human FcγRIIaR extracellular domain, C-terminal His-tag (human, UniProt P12318 34-217)
T4 construct: also called human FcγRIIa (type R); FcgRIIaR
T4 chain: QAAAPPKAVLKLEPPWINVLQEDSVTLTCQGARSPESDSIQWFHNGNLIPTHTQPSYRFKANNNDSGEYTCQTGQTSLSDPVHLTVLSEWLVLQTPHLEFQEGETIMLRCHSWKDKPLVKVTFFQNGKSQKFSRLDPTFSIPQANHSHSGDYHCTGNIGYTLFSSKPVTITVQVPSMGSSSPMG

T5: human FcγRIIaH extracellular domain, C-terminal His-tag (human, UniProt P12318 34-217)
T5 construct: also called human FcγRIIa (type H); FcgRIIaH
T5 sequence: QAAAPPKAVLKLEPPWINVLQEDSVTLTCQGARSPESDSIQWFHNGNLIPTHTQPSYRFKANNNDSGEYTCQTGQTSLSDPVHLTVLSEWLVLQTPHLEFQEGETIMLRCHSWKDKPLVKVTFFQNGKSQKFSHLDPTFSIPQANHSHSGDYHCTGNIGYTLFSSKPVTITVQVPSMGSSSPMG

T6: cynomolgus monkey FcγRIIa2 extracellular domain, C-terminal His-tag (cynomolgus monkey)
T6 construct: also called cyno FcγRIIa2; cynoFcgRIIa2
T6 chain: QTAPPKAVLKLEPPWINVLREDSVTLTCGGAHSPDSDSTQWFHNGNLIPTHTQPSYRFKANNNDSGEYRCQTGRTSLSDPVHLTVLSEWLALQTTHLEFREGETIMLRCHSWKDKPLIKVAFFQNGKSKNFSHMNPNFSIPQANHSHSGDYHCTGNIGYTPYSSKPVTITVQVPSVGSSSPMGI

T7: cynomolgus monkey FcγRIIa1 extracellular domain, C-terminal His-tag (cynomolgus monkey)
T7 construct: also called cyno FcγRIIa1; cynoFcgRIIa1
T7 chain: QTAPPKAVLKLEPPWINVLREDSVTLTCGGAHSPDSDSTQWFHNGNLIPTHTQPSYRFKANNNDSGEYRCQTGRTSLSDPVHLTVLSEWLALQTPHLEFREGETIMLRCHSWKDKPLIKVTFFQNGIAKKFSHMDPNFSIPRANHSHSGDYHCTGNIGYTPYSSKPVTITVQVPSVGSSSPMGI


Columns and labels:
Assay in all cases: SPR (Biacore); KD of SG1 / KD of variant;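 further: relative to parent M103205H795-SG1 carrying the SG1 human heavy chain constant region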
[1] = molecular target: T1, cynomolgus monkey FcγRIIa3 …
Experimental: (§1) The kinetic analysis of interactions between these antibodies and FcγR was carried out using BIACORE® T200 or BIACORE® 4000 (GE Healthcare). HBS-EP+ (GE Healthcare) was used as the running buffer, and the measurement temperature was set to 25° C. A chip produced by immobilizing Protein A. Protein A/G or mouse anti-human IgG kappa light chain (BD Biosciences) onto a Series S Sensor Chip CM4 or CM5 (GE Healthcare) by the amine-coupling method was used. […] After the measurement, the antibody captured on the chip was washed off by allowing reaction with 10 mM glycine-HCl, pH1.5 and 25 mM NaOH so that the chip was regenerated and used repeatedly. The sensorgrams obtained as measurement results were analyzed by the 1:1 Langmuir binding model using the BIACORE® Evaluation Software to calculate the binding rate constant ka (L/mol/s) and dissociation rate constant kd (l/s), and the dissociation constant KD (mol/L) was calculated from these values. […] Regarding such interactions, KD values were calculated using the following 1:1 binding model described in BIACORE® T100 Software Handbook BR1006-48 Edition AE.
(§2) The behavior of interacting molecules according to the 1:1 binding model on BIACORE® can be described by Equation 1: Req=C·R max/(KD+C)+RI, wherein, Req is a plot of steady-state binding levels to analyte concentration. C is concentration, RI is bulk refractive index contribution in the sample, and Rmax is analyte binding capacity of the surface. When this equation is rearranged, KD can be expressed as Equation 2: KD=C·Rmax/(Req−RI)−C. KD can be calculated by substituting the values of Rmax, RI, and C into Equation 1 or Equation 2. From the current measurement conditions, RI=0, C=2 μmol/L can be used.

[2] = molecular target: T2, cynomolgus monkey FcγRIIb extracellular …
Experimental: as §1, §2

[3] = molecular target: T3, human FcγRIIb extracellular domain, …
Experimental: as §1, §2

[4] = molecular target: T4, human FcγRIIaR extracellular domain, …
Experimental: as §1, §2

[5] = molecular target: T5, human FcγRIIaH extracellular domain, …
Experimental: as §1, §2

[6] = molecular target: T8, human FcγRIIIaV extracellular domain, C-terminal His-tag (human, UniProt P08637 17-208)
T8 construct: also called human FcgRIIIaV; FcgRIIIaV
Experimental: as §1, §2

[7] = molecular target: T6, cynomolgus monkey FcγRIIa2 …
Experimental: as §1, §2

[8] = molecular target: T7, cynomolgus monkey FcγRIIa1 …
Experimental: as §1, §2

T8 sequence (P08637 17-208 F176V): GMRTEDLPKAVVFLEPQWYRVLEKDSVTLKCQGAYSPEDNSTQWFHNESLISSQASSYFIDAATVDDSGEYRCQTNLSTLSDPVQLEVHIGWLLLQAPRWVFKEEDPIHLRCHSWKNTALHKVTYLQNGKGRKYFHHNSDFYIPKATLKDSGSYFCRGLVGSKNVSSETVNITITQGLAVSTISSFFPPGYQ

| Binder | KD fold (SG1 = 1) [1] [fold] | KD fold (SG1 = 1) [2] [fold] | KD fold (SG1 = 1) [3] [fold] | KD fold (SG1 = 1) [4] [fold] | KD fold (SG1 = 1) [5] [fold] | KD fold (SG1 = 1) [6] [fold] | KD fold (SG1 = 1) [7] [fold] | KD fold (SG1 = 1) [8] [fold] |
| --- | --- | --- | --- | --- | --- | --- | --- | --- |
| M103205H795-MY050/M103202L889-SK1 (antibody, human IgG1, kappa, Substitutions introduced into M103205H795-SG1; expressed with M103202L889-SK1 as light chain) heavy: QVTLKESGPVLVKPTETLTLTCTVSGIDLSHDDISWVRQAPGKGLEWVGIISYAGSTYYASWAKGRLTISKDTSKNQVVLTMTNMDPVDTATYYCARGVPAYSHGGDLWGQGTLVTVSSASTKGPSVFPLAPSSKSTSGGTAALGCLVKDYFPEPVTVSWNSGALTSGVHTFPAVLQSSGLYSLSSVVTVPSSSLGTQTYICNVNHKPSNTKVDKKVEPKSCDKTHTCPPCPAPELLNGPSVFLFPPKPKDTLMISRTPEVTCVVVDVAEEDPEVKFNWYVDGVEVHNAKTKPREEQYNSTYRVVSVLTVLHQDWLNGKEYKCKVSNKALPAPIEKTISKAKGQPREPQVYTLPPSREEMTKNQVSLTCLVKGFYPSDIAVEWESNGQPENNYKTTPPVLDSDGSFFLYSKLTVDKSRWQQGNVFSCSVMHEALHNHYTQKSLSLSP light: DIVMTQSPATLSLSPGERATLSCTSSQSVYHANWLSWFQQKPGQPPKLLIYWASTLAYGVPSRFSGSGSGTDFTLTISSLQPEDAATYYCAGGYGGGRYAFGQGTKVEIKRTVAAPSVFIFPPSDEQLKSGTASVVCLLNNFYPREAKVQWKVDNALQSGNSQESVTEQDSKDSTYSLSSTLTLSKADYEKHKVYACEVTHQGLSSPVTKSFNRGEC | 0.9 | 3.3 | 6.1 | 0.7 | 0.5 | 0.25 | 1.2 | 0.7 |
| M103205H795-MY051/M103202L889-SK1 (antibody, human IgG1, kappa, Substitutions introduced into M103205H795-SG1; expressed with M103202L889-SK1 as light chain) heavy: QVTLKESGPVLVKPTETLTLTCTVSGIDLSHDDISWVRQAPGKGLEWVGIISYAGSTYYASWAKGRLTISKDTSKNQVVLTMTNMDPVDTATYYCARGVPAYSHGGDLWGQGTLVTVSSASTKGPSVFPLAPSSKSTSGGTAALGCLVKDYFPEPVTVSWNSGALTSGVHTFPAVLQSSGLYSLSSVVTVPSSSLGTQTYICNVNHKPSNTKVDKKVEPKSCDKTHTCPPCPAPELLNGPSVFLFPPKPKDTLMISRTPEVTCVVVDVSEEDGEVKFNWYVDGVEVHNAKTKPREEQYNSTYRVVSVLTVLHQDWLNGKEYKCKVSNKALPAPIEKTISKAKGQPREPQVYTLPPSREEMTKNQVSLTCLVKGFYPSDIAVEWESNGQPENNYKTTPPVLDSDGSFFLYSKLTVDKSRWQQGNVFSCSVMHEALHNHYTQKSLSLSP light: DIVMTQSPATLSLSPGERATLSCTSSQSVYHANWLSWFQQKPGQPPKLLIYWASTLAYGVPSRFSGSGSGTDFTLTISSLQPEDAATYYCAGGYGGGRYAFGQGTKVEIKRTVAAPSVFIFPPSDEQLKSGTASVVCLLNNFYPREAKVQWKVDNALQSGNSQESVTEQDSKDSTYSLSSTLTLSKADYEKHKVYACEVTHQGLSSPVTKSFNRGEC | 0.9 | 0.9 | 2.3 | 0.4 | 0.3 | 0.11 | 1.1 | 0.7 |
| M103205H795-MY052/M103202L889-SK1 (antibody, human IgG1, kappa, Substitutions introduced into M103205H795-SG1; expressed with M103202L889-SK1 as light chain) heavy: QVTLKESGPVLVKPTETLTLTCTVSGIDLSHDDISWVRQAPGKGLEWVGIISYAGSTYYASWAKGRLTISKDTSKNQVVLTMTNMDPVDTATYYCARGVPAYSHGGDLWGQGTLVTVSSASTKGPSVFPLAPSSKSTSGGTAALGCLVKDYFPEPVTVSWNSGALTSGVHTFPAVLQSSGLYSLSSVVTVPSSSLGTQTYICNVNHKPSNTKVDKKVEPKSCDKTHTCPPCPAPELLNGPSVFLFPPKPKDTLMISRTPEVTCVVVDVSEEDPEVKFNWYVDGVEVHNAKTKPREEQYNSTYRVVSVLTVLHQDWLNGKEYKCKVSNKALPAPIEKTISKAKGQPREPQVYTLPPSREEMTKNQVSLTCLVKGFYPSDIAVEWESNGQPENNYKTTPMVLDSDGSFFLYSKLTVDKSRWQQGNVFSCSVMHEALHNHYTQKSLSLSP light: DIVMTQSPATLSLSPGERATLSCTSSQSVYHANWLSWFQQKPGQPPKLLIYWASTLAYGVPSRFSGSGSGTDFTLTISSLQPEDAATYYCAGGYGGGRYAFGQGTKVEIKRTVAAPSVFIFPPSDEQLKSGTASVVCLLNNFYPREAKVQWKVDNALQSGNSQESVTEQDSKDSTYSLSSTLTLSKADYEKHKVYACEVTHQGLSSPVTKSFNRGEC | 4.4 | 8.9 | 6.4 | 0.5 | 0.8 | 0.18 | 3.4 | 2.8 |
| M103205H795-MY101/M103202L889-SK1 (antibody, human IgG1, kappa, also called MS1032LO06-MY101) heavy: QVTLKESGPVLVKPTETLTLTCTVSGIDLSHDDISWVRQAPGKGLEWVGIISYAGSTYYASWAKGRLTISKDTSKNQVVLTMTNMDPVDTATYYCARGVPAYSHGGDLWGQGTLVTVSSASTKGPSVFPLAPSSKSTSGGTAALGCLVKDYFPEPVTVSWNSGALTSGVHTFPAVLQSSGLYSLSSVVTVPSSSLGTQTYICNVNHKPSNTKVDKKVEPKSCDKTHTCPPCPAPELLNGPSVFLFPPKPKDTLMISRTPEVTCVVVDVSEEDPEVKFNWYVDGVEVHNAKTKPREEQYNSTYRVVSVLTVLHQDWLNGKEYKCKVSNKALPKPIEKTISKAKGQPREPQVYTLPPSREEMTKNQVSLTCLVKGFYPSDIAVEWESNGQPENNYKTTPMVLDSDGSFFLYSKLTVDKSRWQQGNVFSCSVMHEALHNHYTQKSLSLSP light: DIVMTQSPATLSLSPGERATLSCTSSQSVYHANWLSWFQQKPGQPPKLLIYWASTLAYGVPSRFSGSGSGTDFTLTISSLQPEDAATYYCAGGYGGGRYAFGQGTKVEIKRTVAAPSVFIFPPSDEQLKSGTASVVCLLNNFYPREAKVQWKVDNALQSGNSQESVTEQDSKDSTYSLSSTLTLSKADYEKHKVYACEVTHQGLSSPVTKSFNRGEC | 4.7 | 5.1 | 9.4 | 1.3 | 1.4 | 0.07 | 4.3 | 2.9 |
